Data set [1] has as its target L-phenylserine dehydrogenase (ORF3) from Pseudomonas syringae NK-15 (Pseudomonas syringae NK-15). In words: SEC; HPLC gel filtration on a TSK-GEL G3000SW column (0.75 x 60 cm) at room temperature, 0.1 M potassium phosphate buffer (pH 7.0) with 0.2 M NaCl, 0.7 ml/min; native mass 98 kDa against a subunit of 27 kDa by SDS-PAGE. In general terms: Size exclusion chromatography separates by hydrodynamic size, large species first.

Substrate in data set [2]: NC(=O)c1ccc[n+]([C@@H]2O[C@H](COP(=O)(O)OP(=O)(O)OC[C@H]3O[C@@H](n4cnc5c(N)ncnc54)[C@H](O)[C@@H]3O)[C@@H](O)[C@H]2O)c1
Briefly: purified protein. Format: biochemical, Pseudomonas syringae. As to conditions: DL-threo-β-phenylserine as co-substrate, 0.2 M glycine-KCl-KOH pH 10.5, 30°C (standard assay), varied: cofactor.

Substrate in data set [3]: NC(C(=O)O)C(O)c1ccccc1
In words: purified protein. Format: biochemical, Pseudomonas syringae. Conditions: NAD+ as co-substrate, 0.2 M glycine-KCl-KOH pH 10.5, 30°C (standard assay), racemic DL-threo substrate.

As for “L-phenylserine dehydrogenase (ORF3) from Pseudomonas syringae NK-15 (enzyme)”, the stoichiometry N in data set [1] came to 4.

B1: L-phenylserine dehydrogenase (ORF3; L-PSDH) (Pseudomonas syringae) (protein)
chain: MSFPVCLVTGAATGIGAATALRFARDGWGVAINNFDDSTRADAERVAAQCREAGAQTLVIDADVGDDGACRRMVEQVAAQWGRIDALVNSAGTTRVIPHSDFEAIDPDEFERIYRVNLIGMFQMTRAATPLLRESFCPGHFASVLHVSSLASLYGTGLHPAYAASKGAVNSLTLSLARNLAPLVRVNAIAPGMVDDGLLRRVLGDEADGRVVESMRENAPLKRVSQPAEIAELAWFLAAHAPAMTGQVLAIENGLLLNT
notes: 98 kDa native, probably homotetramer; AB499092 is the 9,246-bp operon entry, which also holds D-phenylserine dehydrogenase (orf5)
For B1, the Michaelis constant (Km) in data set [2] was determined as 2.1 mM; in data set [3], 59 mM.

Broadly, the stoichiometry N is a count of units in the complex or per binding partner. One may read the Km as the substrate concentration at which the rate is half of its maximum.
